Key:
[1] = target: T1, HSV-1 UL31Δ50 (residues 51-306) (HSV-1 strain F, UniProt P10215 51-306); test: SEC
T1 sequence: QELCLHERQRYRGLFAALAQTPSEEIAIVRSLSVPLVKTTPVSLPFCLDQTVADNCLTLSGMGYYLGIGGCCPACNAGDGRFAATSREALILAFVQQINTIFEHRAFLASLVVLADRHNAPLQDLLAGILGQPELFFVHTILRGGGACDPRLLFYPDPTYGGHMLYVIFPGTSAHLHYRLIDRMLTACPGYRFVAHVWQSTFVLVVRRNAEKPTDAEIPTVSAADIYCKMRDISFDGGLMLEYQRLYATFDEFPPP

[2] = target: T2, HSV-1 UL31, full length (residues 1-306) (HSV-1 strain F, UniProt P10215 1-306); test: SEC
T2 sequence: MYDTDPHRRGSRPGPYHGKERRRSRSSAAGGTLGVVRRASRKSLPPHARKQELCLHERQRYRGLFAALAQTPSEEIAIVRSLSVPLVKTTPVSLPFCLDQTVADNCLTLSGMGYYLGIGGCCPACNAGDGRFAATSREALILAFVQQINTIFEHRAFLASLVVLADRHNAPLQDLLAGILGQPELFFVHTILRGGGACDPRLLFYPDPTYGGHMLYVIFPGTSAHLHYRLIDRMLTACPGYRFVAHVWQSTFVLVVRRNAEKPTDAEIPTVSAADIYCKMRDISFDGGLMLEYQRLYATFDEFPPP

[3] = target: T2, HSV-1 UL31, full length (residues 1-306); test: co-purification
cross-linking = target: the molecule itself; test: cross-linking
cryo-EM structure = target: the molecule itself; test: cryo-EM structure

B1: HSV-1 UL34(1-185) (domain or fragment)
chain: MAGLGKPYTGHPGDAFEGLVQRIRLIVPSTLRGGDGEAGPYSPSSLPSRCAFQFHGHDGSDESFPIEYVLRLMNDWAEVPCNPYLRIQNTGVSVLFQGFFHRPHNAPGGAITPERTNVILGSTETTGLSLGDLDTIKGRLGLDARPMMASMWISCFVRMPRVQLAFRFMGPEDAGRTRRILCRAA
Question: Does B1 bind [1]?
Answer: Result: binds

Question: Does B1 bind [2]?
Answer: Result: binds

B2: HSV-1 UL34(1-220) (domain or fragment)
chain: MAGLGKPYTGHPGDAFEGLVQRIRLIVPSTLRGGDGEAGPYSPSSLPSRCAFQFHGHDGSDESFPIEYVLRLMNDWAEVPCNPYLRIQNTGVSVLFQGFFHRPHNAPGGAITPERTNVILGSTETTGLSLGDLDTIKGRLGLDARPMMASMWISCFVRMPRVQLAFRFMGPEDAGRTRRILCRAAEQAITRRRRTRRSREAYGAEAGLGVAGTGFRARGD
Question: What does the source list for B2?
Answer: binding result [1]: binds; binding result [3]: binds

B3: HSV-1 nuclear egress complex NEC220-DN (UL31 1-306 with UL34 1-220 D35A/E37A) (complex)
chain 1: MYDTDPHRRGSRPGPYHGKERRRSRSSAAGGTLGVVRRASRKSLPPHARKQELCLHERQRYRGLFAALAQTPSEEIAIVRSLSVPLVKTTPVSLPFCLDQTVADNCLTLSGMGYYLGIGGCCPACNAGDGRFAATSREALILAFVQQINTIFEHRAFLASLVVLADRHNAPLQDLLAGILGQPELFFVHTILRGGGACDPRLLFYPDPTYGGHMLYVIFPGTSAHLHYRLIDRMLTACPGYRFVAHVWQSTFVLVVRRNAEKPTDAEIPTVSAADIYCKMRDISFDGGLMLEYQRLYATFDEFPPP
chain 2: MAGLGKPYTGHPGDAFEGLVQRIRLIVPSTLRGGAGAAGPYSPSSLPSRCAFQFHGHDGSDESFPIEYVLRLMNDWAEVPCNPYLRIQNTGVSVLFQGFFHRPHNAPGGAITPERTNVILGSTETTGLSLGDLDTIKGRLGLDARPMMASMWISCFVRMPRVQLAFRFMGPEDAGRTRRILCRAAEQAITRRRRTRRSREAYGAEAGLGVAGTGFRARGD
Question: Does B3 bind (cross-linking)?
Answer: Result: binds

B4: HSV-1 nuclear egress complex NEC220 (UL31 1-306 with UL34 1-220) (complex)
chain 1: MYDTDPHRRGSRPGPYHGKERRRSRSSAAGGTLGVVRRASRKSLPPHARKQELCLHERQRYRGLFAALAQTPSEEIAIVRSLSVPLVKTTPVSLPFCLDQTVADNCLTLSGMGYYLGIGGCCPACNAGDGRFAATSREALILAFVQQINTIFEHRAFLASLVVLADRHNAPLQDLLAGILGQPELFFVHTILRGGGACDPRLLFYPDPTYGGHMLYVIFPGTSAHLHYRLIDRMLTACPGYRFVAHVWQSTFVLVVRRNAEKPTDAEIPTVSAADIYCKMRDISFDGGLMLEYQRLYATFDEFPPP
chain 2: MAGLGKPYTGHPGDAFEGLVQRIRLIVPSTLRGGDGEAGPYSPSSLPSRCAFQFHGHDGSDESFPIEYVLRLMNDWAEVPCNPYLRIQNTGVSVLFQGFFHRPHNAPGGAITPERTNVILGSTETTGLSLGDLDTIKGRLGLDARPMMASMWISCFVRMPRVQLAFRFMGPEDAGRTRRILCRAAEQAITRRRRTRRSREAYGAEAGLGVAGTGFRARGD
Question: B4 was tested. Which “stoichiometry N” value (cryo-EM structure) did it give?
Answer: Its value is 6.
